Results as given in the RNAGym collection of RNA variant scans (doi:10.7554/elife.80360).

B1: Hammerhead Ribozyme (parent)
chain: ACCGGAUGUGCUUUCCGGUCUGAUGAGUCCGUGAGGACGAAACAG

Variants of: B1
Experiment: self-cleavage, relative activity (ratio to wild type); higher = more cleavage; co-transcriptional

Row | Variant | self-cleavage
1 | G35A G45A | 0.452
2 | C30U A44U | 0.625
3 | G4C G10C | 0.436
4 | A23G G31U | 0.448
5 | G22U U24C | 0.348
6 | C20G C30G | 0.37
7 | G18A C38U | 0.531
8 | G8C U14C | 0.785
9 | G31A A40U | 0.297
10 | A1G U14A | 1.46
11 | C29G U32A | 0.847
12 | U9C A37G | 1.61
13 | C38G | 0.767
14 | C16U U24G | 1.16
15 | U9C C16G | 0.626
16 | G5A G25C | 0.268
17 | C3G U28G | 0.356
18 | C3A G22C | 0.285
19 | A1U A23G | 0.383
20 | U9G | 0.989
21 | C2U A34U | 0.972
22 | G8A U24G | 1.32
23 | U7A A37U | 0.497
24 | C3G A23C | 0.328

Row | Variant | self-cleavage
25 | G22U G33A | 0.307
26 | A1C A40U | 0.484
27 | C2A A6U | 0.331
28 | G18C G36C | 0.352
29 | U24G A37U | 0.854
30 | U9A U24A | 1.2
31 | C30A A37U | 0.42
32 | U12G A44C | 0.499
33 | U14G A40G | 0.366
34 | G10U C15G | 0.826
35 | C3A G5C | 0.319
36 | G27A A41G | 0.361
37 | G10U A23C | 0.47
38 | U12C G36C | 0.713
39 | A34C G36C | 0.419
40 | A34G A40C | 0.44
41 | U13A G36C | 1.03
42 | A41C G45U | 0.41
43 | A1U G36A | 0.537
44 | C16A G27C | 0.571
45 | U21A A23G | 0.419
46 | U24C G33U | 0.854
47 | C38G A40C | 0.211
48 | C16U U28A | 0.576

Row | Variant | self-cleavage
49 | G18A C43A | 0.299
50 | U7C U21G | 0.449
51 | A23U G36U | 0.314
52 | G4U G25U | 0.253
53 | G8A C20A | 0.501
54 | G27U C30G | 0.297
55 | U13C A42G | 0.232
56 | C43A G45A | 0.515
57 | U21G C29U | 0.471
58 | A40U A41U | 0.439
59 | C16A U24A | 1.34
60 | C11A U28C | 1.1
61 | G18C A26C | 0.354
62 | U21C C38A | 0.711
63 | A40U | 0.366
64 | A34C G35U | 0.58
65 | C3G A42G | 0.256
66 | C30A G45U | 0.545
67 | A37G A44U | 0.595
68 | G18U U21A | 0.381
69 | G33U A40G | 0.4
70 | G5A A44U | 0.532
71 | U14C G36C | 0.31
72 | C3U G25U | 0.345

Row | Variant | self-cleavage
73 | G25C U28C | 0.309
74 | G27U A40G | 0.298
75 | C3U U12G | 0.843
76 | U12G G18A | 0.583
77 | A23C C29G | 0.369
78 | A6U A41C | 0.334
79 | C20U G36A | 0.36
80 | G10C A40C | 0.457
81 | G27C G31U | 0.772
82 | U21C A40U | 0.274
83 | U28C A40U | 0.307
84 | C16U A40C | 0.507
85 | A26U A37U | 0.545
86 | G8U C11G | 1.21
87 | C29G C38G | 0.424
88 | U21C A41G | 0.297
89 | U21C A23G | 0.354
90 | C16G C43A | 0.337
91 | C29G G39A | 0.324
92 | C11G A34G | 1.06
93 | G25C C38A | 0.367
94 | U14A A23C | 0.345
95 | G18C C20A | 0.285
96 | U19C U28G | 0.435

Row | Variant | self-cleavage
97 | U12G A41C | 0.276
98 | G8U G18C | 0.513
99 | G22U G25U | 0.303
100 | A6C C16G | 0.372
101 | G10A C43U | 0.605
102 | G5A U7A | 0.95
103 | U9G C20U | 0.468
104 | G5C G8A | 0.619
105 | U13G A23C | 0.356
106 | C30U G39C | 0.319
107 | G4U U7A | 0.432
108 | U7G C16U | 1.4
109 | U7G U14A | 1.46
110 | U24C G25C | 0.324
111 | A6G U32G | 0.431
112 | C16G A37C | 0.737
113 | G31C U32G | 0.683
114 | U12C G18C | 0.5
115 | C16G A44C | 0.373
116 | G4C G33C | 0.742
117 | C3A U12G | 0.487
118 | G10C U12G | 1.09
119 | A34G A41G | 0.339
120 | G25U G33A | 0.374

Row | Variant | self-cleavage
121 | C29G C43A | 0.376
122 | U28A G45A | 0.436
123 | G5C C38G | 0.278
124 | G5U G36A | 0.417
125 | G5C U13G | 0.85
126 | U7C A34C | 1.16
127 | C16U G35U | 0.735
128 | C16A U19C | 0.39
129 | G31A A34U | 0.954
130 | G5A G10C | 1.16
131 | U7A G31A | 1.28
132 | U24G U28G | 0.885
133 | U9C A26G | 0.379
134 | G25U U32G | 0.392
135 | C29G G45A | 0.359
136 | U9A G25A | 0.345
137 | G36A A42U | 0.333
138 | A23U G25C | 0.31
139 | C2G G10U | 0.379
140 | A1C G36A | 0.394
141 | U21A G36A | 0.41
142 | G5A A40U | 0.409
143 | G33U G45A | 0.698
144 | G17A G25A | 0.353

Row | Variant | self-cleavage
145 | U14G C20A | 0.481
146 | C2U A40G | 0.284
147 | C2A C38G | 0.373
148 | U13A G33U | 1.46
149 | U19A G45C | 0.405
150 | C2G G45C | 0.331
151 | G8U C38A | 0.774
152 | C11U G33C | 0.659
153 | G4U C20G | 0.272
154 | C15A G22U | 0.303
155 | C11G G39A | 0.253
156 | C15A C20G | 0.289
157 | C15A C38U | 0.814
158 | C15G U28G | 0.384
159 | U9C G45U | 0.591
160 | A6G U12C | 0.802
161 | C30G A34G | 0.409
162 | G31C A40G | 0.302
163 | G5U G25C | 0.301
164 | U7C A23U | 0.339
165 | A40C C43A | 0.299
166 | U21A C30A | 0.511
167 | A26G U28A | 0.274
